Laboratory results published in CN116496403A (ZEDA BIOMEDICAL CO LTD, dated 2023).
“And” between values parts separate entries of the source, which are not always exact repeats. Equal values may be shown once.

B1: 抗IGF1R单抗 A12 (antibody, human IgG1, lambda, V domains shown)
VH: EVQLVQSGAEVKKPGSSVKVSCKASGGTFSSYAISWVRQAPGQGLEWMGGIIPIFGTANYAQKFQGRVTITADKSTSTAYMELSSLRSEDTAVYYCARAPLRFLEWSTQDHYYYYYMDVWGKGTTVTVSS
VL: SSELTQDPAVSVALGQTVRITCQGDSLRSYYATWYQQKPGQAPILVIYGENKRPSGIPDRFSGSSSGNTASLTITGAQAEDEADYYCKSRDGSGQHLVFGGGTKLTVLG
notes: also called anti-IGF1RmAb; 抗IGF1R抗体A12
B2: 抗PDL1×IGF1R双特异性抗体 D31-1 (bispecific antibody, human IgG1, lambda)
heavy: not shown
light: SSELTQDPAVSVALGQTVRITCQGDSLRSYYATWYQQKPGQAPILVIYGENKRPSGIPDRFSGSSSGNTASLTITGAQAEDEADYYCKSRDGSGQHLVFGGGTKLTVLGQPKAAPSVTLFPPSSEELQANKATLVCLISDFYPGAVTVAWKADSSPVKAGVETTTPSKQSNNKYAASSYLSLTPEQWKSHRSYSCQVTHEGSTVEKTVAPAECS
notes: A12 IgG1 with anti-PDL1 scFv1 (VL-L1-VH) at the C-terminus of each heavy chain
B3: 抗PDL1×IGF1R双特异性抗体 D31-4 (bispecific antibody, human IgG1, lambda)
heavy: not shown
light: B2 light
notes: A12 IgG1 with anti-PDL1 scFv1 at the N-terminus of each heavy chain
B4: 抗PDL1×IGF1R双特异性抗体 D31-3 (bispecific antibody, human IgG1, lambda)
heavy: not shown
light: B2 light
notes: A12 IgG1 with anti-PDL1 scFv2 at the N-terminus of each heavy chain
B5: 抗PDL1×IGF1R双特异性抗体 D31-2 (bispecific antibody, human IgG1, lambda)
heavy: not shown
light: B2 light
notes: A12 IgG1 with anti-PDL1 scFv2 (VH-L1-VL) at the C-terminus of each heavy chain
B6: 抗PDL1×IGF1R双特异性抗体 D31-5 (bispecific antibody, human IgG1, kappa)
heavy: not shown
light: EIVLTQSPDFLSVTPKEKVTITCRASQSIGTTIHWYQQKPDQSPKLLIKYASQSFSGVPSRFSGSGSGTDFTLTINSVEAEDAATYYCQQSNSWPLTFGAGTKLEIKRTVAAPSVFIFPPSDEQLKSGTASVVCLLNNFYPREAKVQWKVDNALQSGNSQESVTEQDSKDSTYSLSSTLTLSKADYEKHKVYACEVTHQGLSSPVTKSFNRGEC
notes: Anti-PDL1 IgG1 with A12 scFv1 (VL-L1-VH) at the C-terminus of each heavy chain
B7: 抗PDL1×IGF1R双特异性抗体 D31-7 (bispecific antibody, human IgG1, kappa)
heavy: not shown
light: B6 light
notes: Anti-PDL1 IgG1 with A12 scFv2 at the N-terminus of each heavy chain
B8: 抗PDL1×IGF1R双特异性抗体 D31-8 (bispecific antibody, human IgG1, kappa)
heavy: not shown
light: B6 light
notes: Anti-PDL1 IgG1 with A12 scFv1 at the N-terminus of each heavy chain
B9: 抗PDL1×IGF1R双特异性抗体 D31-6 (bispecific antibody, human IgG1, kappa)
heavy: not shown
light: B6 light
notes: Anti-PDL1 IgG1 with A12 scFv2 (VH-L1-VL) at the C-terminus of each heavy chain
B10: 抗PD-L1单抗(anti-PDL1 mAb) (antibody, human IgG1, kappa, V domains shown)
VH: QVQLQQSGGGLVKPSQSLSLTCTVSGFSLTSYGVHWVRQPPGKGLEWIGLIWSGGGTDYNPSLKSRLTISRDTSKNQVSFKISSLTAADTAVYYCARQLGLRAMDYWGQGTSVTVSS
VL: EIVLTQSPDFLSVTPKEKVTITCRASQSIGTTIHWYQQKPDQSPKLLIKYASQSFSGVPSRFSGSGSGTDFTLTINSVEAEDAATYYCQQSNSWPLTFGAGTKLEIKR
notes: also called 抗人PD-L1单抗

The binders below were run against T1, IGF1R-ECD-His蛋白 (UniProt P08069 31-935) (assay: ELISA, IGF1R-ECD-His coated, HRP-anti-hFc).
T1 construct: extracellular domain; Expressed in HEK-293E cells; also called IGF1R抗原
T1 sequence (P08069 31-935): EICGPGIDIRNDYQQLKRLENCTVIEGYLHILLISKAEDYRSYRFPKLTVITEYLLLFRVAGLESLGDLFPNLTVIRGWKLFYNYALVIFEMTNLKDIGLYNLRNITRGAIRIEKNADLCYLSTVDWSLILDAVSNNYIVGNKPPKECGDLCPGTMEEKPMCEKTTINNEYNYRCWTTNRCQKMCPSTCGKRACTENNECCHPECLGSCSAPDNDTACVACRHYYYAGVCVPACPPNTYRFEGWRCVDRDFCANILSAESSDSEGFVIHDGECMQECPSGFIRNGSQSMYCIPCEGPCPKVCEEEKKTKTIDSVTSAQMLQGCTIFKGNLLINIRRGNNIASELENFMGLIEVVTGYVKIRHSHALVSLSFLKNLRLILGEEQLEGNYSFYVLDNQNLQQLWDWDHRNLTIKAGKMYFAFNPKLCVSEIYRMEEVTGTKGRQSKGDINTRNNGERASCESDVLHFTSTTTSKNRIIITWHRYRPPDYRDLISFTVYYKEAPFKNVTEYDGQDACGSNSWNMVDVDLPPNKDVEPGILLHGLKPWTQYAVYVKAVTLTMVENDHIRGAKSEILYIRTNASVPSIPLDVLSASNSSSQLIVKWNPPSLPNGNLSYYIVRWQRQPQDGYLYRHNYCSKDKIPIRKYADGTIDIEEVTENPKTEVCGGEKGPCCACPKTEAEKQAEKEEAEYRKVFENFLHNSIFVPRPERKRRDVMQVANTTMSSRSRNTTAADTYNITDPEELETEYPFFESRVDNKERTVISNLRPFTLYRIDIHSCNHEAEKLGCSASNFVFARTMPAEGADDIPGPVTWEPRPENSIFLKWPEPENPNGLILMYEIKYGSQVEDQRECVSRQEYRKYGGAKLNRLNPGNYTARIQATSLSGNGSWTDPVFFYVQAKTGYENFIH

EC50 | Binder
0.157 nM and 0.0676 nM | B1
0.193 nM | B2
0.249 nM | B3
0.315 nM | B4
0.185 nM | B5
0.137 nM | B6
0.0648 nM | B7
0.0465 nM | B8
0.0961 nM | B9

These binders were tested against PD-L1 on PD-L1 aAPC/CHO-K1 cells (UniProt Q9NZQ7 19-290) (assay: cell-based or functional assay).
Chain of PD-L1 on PD-L1 aAPC/CHO-K1 cells (Q9NZQ7 19-290): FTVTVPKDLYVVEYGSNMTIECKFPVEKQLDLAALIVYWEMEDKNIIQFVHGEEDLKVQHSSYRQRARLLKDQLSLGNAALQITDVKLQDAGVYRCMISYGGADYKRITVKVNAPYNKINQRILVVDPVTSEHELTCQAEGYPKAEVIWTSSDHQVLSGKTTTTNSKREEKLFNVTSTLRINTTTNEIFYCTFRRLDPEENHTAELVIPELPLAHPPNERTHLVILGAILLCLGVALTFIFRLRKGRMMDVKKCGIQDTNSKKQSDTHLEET

EC50, PD-1/PD-L1 Blockade Bioassay (luciferase reporter) | Binder
2.98 nM | B2
1.31 nM | B3
1.83 nM | B4
1.75 nM | B5
0.363 nM and 0.901 nM | B10
0.401 nM | B6
0.496 nM | B7
0.391 nM | B8
0.336 nM | B9

The binders below were run against IGF1R on BxPC3 cells (human, UniProt P08069 31-1367) (assay: cell-based or functional assay).
Chain of IGF1R on BxPC3 cells (P08069 31-1367): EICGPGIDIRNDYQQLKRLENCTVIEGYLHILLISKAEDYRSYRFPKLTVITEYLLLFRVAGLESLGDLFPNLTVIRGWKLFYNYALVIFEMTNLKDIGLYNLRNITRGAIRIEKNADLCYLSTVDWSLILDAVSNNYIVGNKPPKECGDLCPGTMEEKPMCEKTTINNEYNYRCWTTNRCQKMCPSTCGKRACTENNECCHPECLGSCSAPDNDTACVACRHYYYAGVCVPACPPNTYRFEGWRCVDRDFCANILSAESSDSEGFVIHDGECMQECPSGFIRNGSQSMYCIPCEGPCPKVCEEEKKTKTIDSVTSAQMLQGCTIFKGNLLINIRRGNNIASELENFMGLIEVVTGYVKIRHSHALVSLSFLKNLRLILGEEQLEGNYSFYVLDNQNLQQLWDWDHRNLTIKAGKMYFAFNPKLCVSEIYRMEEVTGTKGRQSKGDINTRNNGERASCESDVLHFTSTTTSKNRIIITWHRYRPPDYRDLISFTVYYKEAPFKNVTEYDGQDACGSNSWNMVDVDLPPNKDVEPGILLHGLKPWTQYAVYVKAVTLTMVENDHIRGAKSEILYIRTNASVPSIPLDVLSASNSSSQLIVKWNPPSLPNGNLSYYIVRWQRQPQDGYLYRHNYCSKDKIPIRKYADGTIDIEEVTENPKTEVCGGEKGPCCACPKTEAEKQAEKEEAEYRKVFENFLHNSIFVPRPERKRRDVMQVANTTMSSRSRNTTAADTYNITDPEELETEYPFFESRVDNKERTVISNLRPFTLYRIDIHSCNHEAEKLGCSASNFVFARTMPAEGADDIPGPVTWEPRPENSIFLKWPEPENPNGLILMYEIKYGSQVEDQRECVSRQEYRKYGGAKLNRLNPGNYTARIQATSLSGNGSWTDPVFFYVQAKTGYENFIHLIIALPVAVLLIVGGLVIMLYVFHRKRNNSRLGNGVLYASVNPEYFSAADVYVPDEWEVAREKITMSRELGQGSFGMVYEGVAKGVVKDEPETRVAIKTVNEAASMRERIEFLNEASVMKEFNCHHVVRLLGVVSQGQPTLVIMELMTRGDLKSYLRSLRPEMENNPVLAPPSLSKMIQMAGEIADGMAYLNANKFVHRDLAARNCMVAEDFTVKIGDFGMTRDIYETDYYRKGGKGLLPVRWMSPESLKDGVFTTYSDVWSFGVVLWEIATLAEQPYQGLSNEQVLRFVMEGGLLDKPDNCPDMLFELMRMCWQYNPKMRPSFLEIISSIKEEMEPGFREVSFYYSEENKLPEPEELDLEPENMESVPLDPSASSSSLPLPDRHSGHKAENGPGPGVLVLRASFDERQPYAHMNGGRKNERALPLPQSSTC

IC50, inhibition of BxPC3 proliferation with IGF-1 100 ng/mL (CCK8) | Binder
6.77 nM and 14 nM | B1
1.96 nM | B2
16.5 nM | B3
47.7 nM | B4
2.51 nM | B5
39.6 nM | B6
20.5 nM | B7
5.62 nM | B8
67 nM | B9

What follows are binders tested against T2, PDL1-ECD-His蛋白 (UniProt Q9NZQ7 19-238) (assay: ELISA, PDL1-ECD-His coated, HRP goat anti-human Fc).
T2 construct: extracellular domain; Expressed in HEK-293E cells; also called PD-L1抗原; PDL1抗原
T2 sequence (Q9NZQ7 other isoform, or with tags, fused parts or gaps): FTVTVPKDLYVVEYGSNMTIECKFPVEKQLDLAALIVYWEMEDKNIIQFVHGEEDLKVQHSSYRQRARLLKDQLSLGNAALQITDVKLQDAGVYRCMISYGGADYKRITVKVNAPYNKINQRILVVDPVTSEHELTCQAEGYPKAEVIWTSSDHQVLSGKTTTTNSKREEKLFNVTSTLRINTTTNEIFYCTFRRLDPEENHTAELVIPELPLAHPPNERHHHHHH

EC50 | Binder
0.391 nM | B2
0.249 nM | B3
0.301 nM | B4
0.296 nM | B5
0.0836 nM and 0.145 nM | B10
0.0858 nM | B6
0.0749 nM | B7
0.0572 nM | B8
0.079 nM | B9

What follows are binders tested against T1, IGF1R-ECD-His蛋白 (assay: sandwich ELISA: PDL1-ECD-hFc coated, antibody, then IGF1R-ECD-His, HRP-anti-His).

binding result | Binder
no binding (tested: 起始浓度为30nM) | B10

What follows are binders tested against T3, PDL1-ECD-hFc蛋白 (UniProt Q9NZQ7 19-238) in the same assay as above.
T3 construct: extracellular domain; PDL1-ECD-His with the C-terminal tag changed to hFc; also called PDL1抗原; not shown: hFc tag at the C-terminus in place of the His tag
T3 sequence (Q9NZQ7 19-238): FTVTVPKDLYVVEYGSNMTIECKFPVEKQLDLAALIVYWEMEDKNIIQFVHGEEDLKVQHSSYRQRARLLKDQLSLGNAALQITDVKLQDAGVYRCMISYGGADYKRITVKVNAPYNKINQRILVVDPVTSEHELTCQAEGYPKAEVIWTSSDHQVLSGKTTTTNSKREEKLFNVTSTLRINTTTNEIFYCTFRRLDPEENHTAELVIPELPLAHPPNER

binding result | Binder
no binding (tested: 起始浓度为30nM) | B1
